Here are results for ten molecules from patent publication US20210246200A1 (UNIVERSIT T Z RICH, published 2021).

The target of assay [1] is T1, Proleukin® (aldesleukin) (human, UniProt P60568 21-153, limits assumed).
T1 construct: Variant of human wt IL-2 with C145S (C125S on mature IL-2); also called IL-2 (Proleukin®); human IL-2 (Proleukin)
Briefly: ELISA, coated Proleukin, HEK293F supernatant 1:2.
Experimental: Subsequently, hIL-2 binding efficiency of the antibodies present in the supernatants was determined using ELISA. In brief, ELISA plates (Maxisorp 96-well black microtiter plate) were coated overnight at 4° C. with 100p/well of Proleukin® (5 μg/ml PBS). ELISA plates were washed once with TBST (1×TBS/0.05% Tween 20) using a plate-washer (BioTek). […] After removal of the blocking buffer, plates were washed once with TBST using the plate washer. Supernatants were diluted 1:2 in blocking buffer and 50 μl transferred to the designated well of the ELISA plate. Each sample was present on three ELISA plates. The three plates were incubated at RT under gentle agitation. […] The other two plates were washed either every hour three times with TBST for 4 hours or washed every hour three times for 12 hours before adding the detection antibody. […] Luminescence signal was measured after 5 minutes incubation in the dark. […] All ELISA values are mean values based on two measurements.

In assay [2] the target is T1, Proleukin® (aldesleukin). Kind of assay: ELISA, coated Proleukin, serially diluted supernatant. On the technique in general: ELISA stands for enzyme-linked immunosorbent assay.

Where a chain is given by its changes, count along the chain named. Names and notes keep the numbering of the source.

T1 sequence (P60568 other isoform, or with tags, fused parts or gaps limits assumed): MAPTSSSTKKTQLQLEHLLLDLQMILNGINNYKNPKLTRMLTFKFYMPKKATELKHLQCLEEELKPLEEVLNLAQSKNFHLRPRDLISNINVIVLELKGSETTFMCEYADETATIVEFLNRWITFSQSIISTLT

B1: Antibody No: 26 (antibody, human IgG1, kappa, N297A, V domains shown)
VH: EVQLVQSGAEVKKPGESLKISCKGSGYAFSNYLIEWVRQMPGKGLEWMGVINPGSGGTYYNEKFKGQVTISADKSISTAYLQWSSLKASDTAMYYCARWRGEGYYAYFDVWGQGTTVTVSS
VL: AIRLTQSPSSFSASTGDRVTITCKASQSVDYQGDSYMNWYQQKPGKAPKLLIYAASNLESGVPSRFSGSGSGTDFTLTISSLQSEDFATYYCQQSNEDPYTFGGGTKVEIKR
notes: VH N58Y + T30S; VK WT; HEK293F supernatant; 108929 is kept apart
What is called EC50 is the concentration that produces a half-maximal response. Low values mean higher potency in that assay, high ones lower potency in that assay. Turning to B1, in assay [1], the “ELISA value (Normal ELISA)” value was 4030 luminescence signal, the “ELISA value (wash 3x every hour for 4 HRS)” value worked out at 4210 luminescence signal and the “ELISA value (wash 3x every hour for 12 HRS)” value is 1800 luminescence signal. In addition, the EC50 in assay [2] is 0.49 nM.

B2: Antibody No: 29 (antibody, human IgG1, kappa, N297A, V domains shown)
VH: B1 VH
VL: B1 VL with A54T
notes: VH N58Y + T30S; VK A50T; HEK293F supernatant
For B2, in assay [1], the “ELISA value (Normal ELISA)” value turned out to be 6950 luminescence signal, the “ELISA value (wash 3x every hour for 4 HRS)” value stood at 6850 luminescence signal and the “ELISA value (wash 3x every hour for 12 HRS)” value came out at 2720 luminescence signal. This molecule also gave a concentration for a half-maximal effect (EC50) in assay [2] of 0.24 nM.

B3: Antibody No: 30 (antibody, human IgG1, kappa, N297A, V domains shown)
VH: B1 VH
VL: B1 VL with M37L, A54S
notes: VH N58Y + T30S; VK M33L + A50S; HEK293F supernatant
For B3, in assay [1], the “ELISA value (Normal ELISA)” value was 14900 luminescence signal, the “ELISA value (wash 3x every hour for 4 HRS)” value was 14400 luminescence signal and the “ELISA value (wash 3x every hour for 12 HRS)” value is 2800 luminescence signal. Moreover, the EC50 in assay [2] came out at 0.22 nM.

B4: Antibody No: 32 (antibody, human IgG1, kappa, N297A, V domains shown)
VH: B1 VH with F108Y
VL: B1 VL with M37L
notes: VK M33L; HEK293F supernatant
As to B4, in assay [1], the “ELISA value (Normal ELISA)” value is 7190 luminescence signal, the “ELISA value (wash 3x every hour for 4 HRS)” value was found to be 6210 luminescence signal and the “ELISA value (wash 3x every hour for 12 HRS)” value stood at 3330 luminescence signal. For the same molecule, in assay [2], the concentration giving a half-maximal response (EC50) was determined as 0.65 nM.

B5: Antibody No: 35 (antibody, human IgG1, kappa, N297A, V domains shown)
VH: B1 VH with F108Y
VL: B1 VL with M37L, A54S
notes: VK M33L + A50S; HEK293F supernatant
As to B5, in assay [1], the “ELISA value (Normal ELISA)” value was found to be 4910 luminescence signal, the “ELISA value (wash 3x every hour for 4 HRS)” value was determined as 4040 luminescence signal and the “ELISA value (wash 3x every hour for 12 HRS)” value is 1790 luminescence signal. In assay [2], it took 0.72 nM to reach a half-maximal effect (EC50).

B6: Antibody No: 28 (antibody, human IgG1, kappa, N297A, V domains shown)
VH: B1 VH
VL: B1 VL with A54S
notes: VH N58Y + T30S; VK A50S; HEK293F supernatant; 108930 is kept apart
For the molecule B6, in assay [1], the “ELISA value (Normal ELISA)” value came out at 18500 luminescence signal, the “ELISA value (wash 3x every hour for 4 HRS)” value was 18100 luminescence signal and the “ELISA value (wash 3x every hour for 12 HRS)” value is 5870 luminescence signal. Moreover, in assay [2], it took 0.16 nM to reach a half-maximal effect (EC50).

B7: Antibody No: 33 (antibody, human IgG1, kappa, N297A, V domains shown)
VH: B1 VH with F108Y
VL: B1 VL with A54S
notes: VK A50S; HEK293F supernatant
With B7, in assay [1], the “ELISA value (Normal ELISA)” value was determined as 3990 luminescence signal, the “ELISA value (wash 3x every hour for 4 HRS)” value turned out to be 3570 luminescence signal and the “ELISA value (wash 3x every hour for 12 HRS)” value is 1820 luminescence signal. This molecule registered an EC50 in assay [2] of 0.67 nM.

B8: Antibody No: 34 (antibody, human IgG1, kappa, N297A, V domains shown)
VH: B1 VH with F108Y
VL: B1 VL with A54T
notes: VK A50T; HEK293F supernatant
For B8, in assay [1], the “ELISA value (Normal ELISA)” value stood at 3860 luminescence signal, the “ELISA value (wash 3x every hour for 4 HRS)” value was 3080 luminescence signal and the “ELISA value (wash 3x every hour for 12 HRS)” value stood at 1360 luminescence signal. Besides, the EC50 in assay [2] is 0.65 nM.

B9: Antibody No: 27 (antibody, human IgG1, kappa, N297A, V domains shown)
VH: B1 VH
VL: B1 VL with M37L
notes: VH N58Y + T30S; VK M33L; HEK293F supernatant
Turning to B9, in assay [1], the “ELISA value (Normal ELISA)” value is 7760 luminescence signal, the “ELISA value (wash 3x every hour for 4 HRS)” value is 7000 luminescence signal and the “ELISA value (wash 3x every hour for 12 HRS)” value was found to be 2770 luminescence signal. In assay [2], the midpoint of the response, the EC50, lay at 0.39 nM.

B10: Antibody No: 31 (antibody, human IgG1, kappa, N297A, V domains shown)
VH: B1 VH with F108Y
VL: B1 VL
notes: VK WT; HEK293F supernatant
As to B10, in assay [1], the “ELISA value (Normal ELISA)” value was determined as 11400 luminescence signal, the “ELISA value (wash 3x every hour for 4 HRS)” value stood at 10300 luminescence signal and the “ELISA value (wash 3x every hour for 12 HRS)” value was 3400 luminescence signal. The molecule also had an EC50 in assay [2] of 0.39 nM.
